Values quoted from earlier work, collected in US8076300B2, “FGF2-binding peptides and uses thereof” (Tecnogen S.p.A., priority 2006, dated 2011).

Target: FGF2 (Homo sapiens, UniProt P09038)
Conditions: cited from earlier work

Chain of FGF2 (P09038 143-288): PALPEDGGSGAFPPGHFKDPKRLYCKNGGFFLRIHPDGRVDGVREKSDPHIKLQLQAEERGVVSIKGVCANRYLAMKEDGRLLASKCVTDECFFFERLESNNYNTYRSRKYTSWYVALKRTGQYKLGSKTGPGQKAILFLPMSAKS

Substance: SAP: classical short-pentraxin serum amyloid P component
- FGF2 binding: inefficient FGF2 binders
